Data from publication PMC5358875 (Journal of the American Chemical Society, 2017).
Bridge positions count the residues as written; N and C are the ends. Square brackets hold non-standard residues; d marks the D form. Ends that are not written are not given here. Peptide text beside a SMILES is read from it. I, II: the chains in the order shown. * marks the point of attachment. 5‑TAMRA = CN(C)c1ccc2c(-c3ccc(C(=O)*)cc3C(=O)[O-])c3ccc(N(C)C)cc3[o+]c2c1; Lys(N3) = [N-]=[N+]=NCCCC[C@H](N)C(=O)O; Aha = [N-]=[N+]=NCC[C@H](N)C(=O)O; m3c = not defined here; m3 = not defined here; Ahx = NCCCCCC(=O)O

B1: TNKS2 ARC4 (488–649) (domain or fragment, human, UniProt Q9H2K2 488-649, looked up)
chain: GNSEADRQLLEAAKAGDVETVKKLCTVQSVNCRDIEGRQSTPLHFAAGYNRVSVVEYLLQHGADVHAKDKGGLVPLHNACSYGHYEVAELLVKHGAVVNVADLWKFTPLHEAAAKGKYEICKLLLQHGADPTKKNRDGNTPLDLVKDGDTDIQDLLRGDAAL

Legend:
TNKS2 ARC4 = biological target: T1, TNKS2 ARC4 (Homo sapiens, UniProt Q9H2K2); assay: Competitive fluorescence polarization, TNKS2 ARC4; type: binding; conditions: unlabeled peptides; tracer T-pep1 bound to ARC4; read-out: Kd TNKS2 ARC4 (Competition FP)
T1 construct: GST (cleaved yes); made in house; host or cells: E. coli C41(DE3)
T1 sequence (Q9H2K2 488-649): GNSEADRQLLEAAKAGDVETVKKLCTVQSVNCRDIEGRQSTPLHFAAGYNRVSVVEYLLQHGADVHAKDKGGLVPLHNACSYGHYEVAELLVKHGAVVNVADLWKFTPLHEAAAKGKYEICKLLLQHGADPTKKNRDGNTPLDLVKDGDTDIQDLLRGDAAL
Procedure: Fluorescence polarization (FP) assays were performed in 96-well half area black microplates (Corning) on a CLARIOstar microplate reader (BMG labtech) using excitation filter 540–20 nm, dichroic mirror LP 566 nm, and emission filter 590–20 nm. All peptides were dissolved in water as stock solutions. For direct FP assays, the stock concentrations of the TAMRA-labeled peptides were determined based on the 5-TAMRA absorbance at 556 nm (extinction coefficient ε = 89,000 M^–1 cm^–1) measured on a NanoDrop 2000 (Thermo Scientific) and verified by amino acid analysis (Department of Biochemistry, University of Cambridge). […] Data were analyzed on GraphPad Prism 5.0, and the dissociation constant, Kd, was determined using the following equation assuming the ratio between the concentration of the bound and that of the total TAMRA-labeled peptide is proportional to the fluorescence polarization [drawing 1] where FP is the fluorescence polarization, B is the minimum FP, T is the maximum FP, L0 is the total concentration of TAMRA-labeled peptide, P0 is the total concentration of protein, and Kd is the dissociation constant.
For the competition FP assays, the stock concentrations of the unlabeled macrocyclized peptides or the Axin1 fragments were determined by amino acid analysis. […]

T-cp4n2m3c = assay: fluorescence polarisation; direct FP; TAMRA-labeled peptide (20 nM, 50 μL) mixed with serially diluted TNKS2 ARC4 (40–0 μM, 50 μL); 50 mM HEPES pH 7.5, 300 mM NaCl, 2 mM DTT, 0.05% Tween 20; 30 min at 25 °C
human Axin1_1–80 = human Axin1_1–80 (human, UniProt O15169 1-80); assay: ITC; TNKS2 ARC4 (160–280 μM) or TNKS1 ARC2–3 (60–150 μM) titrated into the cell holding peptide (5–15 μM) or Axin1 fragment (8–12 μM); PBS, 0.5 mM TCEP; 25 °C; one-site model; conditions: both partners purified
[1] = biological target: T2, human tankyrase 2 ankyrin repeat cluster 4 (TNKS2 ARC4, residues 488-649) (human, UniProt Q9H2K2 488-649); assay: fluorescence polarisation; direct: TNKS2 ARC4 or TNKS1 ARC2-3 diluted 2-fold serially (40-0 uM, 50 uL) and mixed with TAMRA-labeled peptide (20 nM, 50 uL); 50 mM HEPES pH 7.5, 300 mM NaCl, 2 mM DTT, 0.05% Tween 20; 30 min, 25 C; conditions: both partners purified
T2 sequence (looked up): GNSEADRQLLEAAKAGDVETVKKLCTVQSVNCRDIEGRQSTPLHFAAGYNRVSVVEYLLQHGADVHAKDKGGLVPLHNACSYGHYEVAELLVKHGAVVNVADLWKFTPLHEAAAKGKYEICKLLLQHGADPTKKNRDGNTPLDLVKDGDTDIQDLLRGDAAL

[2] = biological target: T3, human tankyrase 1 ankyrin repeat clusters 2-3 (TNKS1 ARC2-3, residues 315-662) (human, UniProt O95271 315-662); assay: as above; conditions: both partners purified
T3 sequence (looked up): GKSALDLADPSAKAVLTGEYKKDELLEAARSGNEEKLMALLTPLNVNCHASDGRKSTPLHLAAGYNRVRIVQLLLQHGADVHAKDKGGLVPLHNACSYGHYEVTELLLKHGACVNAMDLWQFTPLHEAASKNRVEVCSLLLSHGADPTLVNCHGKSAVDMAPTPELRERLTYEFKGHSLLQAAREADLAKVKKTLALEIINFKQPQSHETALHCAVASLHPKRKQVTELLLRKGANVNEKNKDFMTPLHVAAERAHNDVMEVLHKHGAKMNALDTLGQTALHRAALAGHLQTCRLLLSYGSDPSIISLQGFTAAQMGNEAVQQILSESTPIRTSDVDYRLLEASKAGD

[3] = biological target: T3, human tankyrase 1 ankyrin repeat …; assay: fluorescence polarisation; competition: Axin1 fragment diluted 2-fold serially against TAMRA-labeled pep1 (20 nM) with TNKS1 ARC2-3 (1.2 uM); PBS, 0.05% Tween 20; 30 min, 25 C; conditions: both partners purified
[4] = biological target: T2, human tankyrase 2 ankyrin repeat …; assay: fluorescence polarisation; competition: unlabeled peptide or Axin1 fragment diluted 2-fold serially against TAMRA-labeled pep1 (20 nM) with TNKS2 ARC4 (3 uM); PBS, 0.05% Tween 20; 30 min, 25 C; conditions: both partners purified
[5] = biological target: T2, human tankyrase 2 ankyrin repeat …; assay: ITC; TNKS2 ARC4 (160-280 uM) or TNKS1 ARC2-3 (60-150 uM) titrated into the cell with unlabeled peptide (5-15 uM) or Axin1 fragment (8-12 uM); PBS, 0.5 mM TCEP; 25 C; one-site model; stoichiometry = TNKS per peptide or Axin1; conditions: both partners purified
[6] = biological target: T3, human tankyrase 1 ankyrin repeat …; assay: as above; conditions: both partners purified
[7] = biological target: T2, human tankyrase 2 ankyrin repeat …; assay: fluorescence polarisation; direct: TNKS2 ARC4 or TNKS1 ARC2-3 diluted 2-fold serially (40-0 uM, 50 uL) and mixed with TAMRA-labeled peptide (20 nM, 50 uL); 50 mM HEPES pH 7.5, 300 mM NaCl, 2 mM DTT, 0.05% Tween 20; 30 min, 25 C; conditions: both partners purified; remark: listed apart in the source
TNKS2 ARC4 (488–649) [8] = biological target: B1; assay: fluorescence polarisation; direct FP; TAMRA-labeled peptide (20 nM, 50 μL) mixed with serially diluted TNKS2 ARC4 (40–0 μM, 50 μL); 50 mM HEPES pH 7.5, 300 mM NaCl, 2 mM DTT, 0.05% Tween 20; 30 min at 25 °C; conditions: both partners purified
TNKS2 ARC4 (488–649) [9] = biological target: B1; assay: fluorescence polarisation; competitive FP; T-pep1 (20 nM) with TNKS2 ARC4 (3 μM) as tracer, unlabeled peptide serially diluted; PBS, 0.05% Tween 20; 30 min at 25 °C; conditions: both partners purified
TNKS2 ARC4 (488–649) [10] = biological target: B1; assay: pull-down; GST-Axin1 1–80 on glutathione beads incubated with TNKS2 ARC4 (89 μM), washed, then incubated 0.5 h at room temperature with unlabeled peptide (0–200 μM); wash buffer 50 mM Tris·HCl pH 8.0, 500 mM NaCl, 2 mM DTT; SDS-PAGE, Coomassie, densitometry; conditions: both partners purified

CC(=O)N[C@@H](CCCNC(=N)N)C(=O)N[C@@H](CCC(=O)O)C(=O)N[C@@H](CCCCN=[N+]=[N-])C(=O)NCC(=O)N[C@@H](CC(=O)O)C(=O)NCC(=O)N[C@@H](CCCCN=[N+]=[N-])C(=O)N[C@@H](CCC(=O)O)C(N)=O [cp4n4] (Ac-RE[Lys(N3)]GDG[Lys(N3)]E-NH2) showed a Kd (TNKS2 ARC4) of 1400 ± 100 nM.

CC(=O)N[C@@H](CCCNC(=N)N)C(=O)N[C@@H](CCC(=O)O)C(=O)N[C@@H](CCCCN=[N+]=[N-])C(=O)NCC(=O)N[C@@H](CC(=O)O)C(=O)NCC(=O)N[C@@H](CCC(=O)O)C(=O)N[C@@H](CCCCN=[N+]=[N-])C(N)=O [cp5n4] (Ac-RE[Lys(N3)]GDGE[Lys(N3)]-NH2) showed a Kd (TNKS2 ARC4) of 2600 ± 100 nM.

B1 was tested, and the fold higher affinity than T-pep1 (T-cp4n2m3c) was 2 fold and the “stoichiometry N” value (human Axin1_1–80) was 1.

For {5‑TAMRA-Ahx}-REAGDGEE [T-pep1 (TAMRA-Ahx-REAGDGEE), listing 1 of 2 here], the Kd [1] was 780 ± 60 nM and the Kd [2] was 190 ± 4 nM.

In the case of MNIQEQGFPLDLGASFTEDAPRPPVPGEEGELVSTDPRPASYS (domain or fragment, UniProt O15169 1-43, looked up) [human Axin1 residues 1-43], the Kd [3] is reported as 560 ± 40 nM, the Kd [4] is reported as 3680 ± 180 nM and the Kd [5] is reported as 2120 ± 160 nM. The “stoichiometry N” value [5] was 1 ± 0.02, the Kd [6] was 830 ± 80 nM and the “stoichiometry N” value [6] was 1 ± 0.01.

B2: human Axin1 residues 1-80 (domain or fragment, UniProt O15169 1-80, looked up)
chain: MNIQEQGFPLDLGASFTEDAPRPPVPGEEGELVSTDPRPASYSFCSGKGVGIKGETSTATPRRSDLDLGYEPEGSASPTP
With B2 the Kd [4] was 2780 ± 220 nM, the Kd [5] was 2620 ± 360 nM and the “stoichiometry N” value [5] was 1 ± 0.03. For the same molecule, the Kd [6] was 1590 ± 90 nM and the “stoichiometry N” value [6] was 2.1 ± 0.02.

B3: T-cp4n2m3c-R6 (peptide)
chain 1: {5‑TAMRA-Ahx}-RE[Aha]GDG[Aha]E
chain 2: RRRRRR
modifications: triazole I:3-I:7 via m3c; not fully specified (N-terminus); reading uncertain; also: chain 2 N-terminus conjugated to m3c linker of chain 1
Work on B3 yielded a Kd [7] of 950 ± 20 nM.

B4: T-cp4n2m3c-Antp (peptide)
chain 1: REXGDGXE
chain 2: RQIKIWFQNRRMKWKK
modifications: 5-TAMRA-Ahx on the N-terminus; X3 and X7 (n2, 2 CH2): azido unnatural amino acids cross-linked through two triazoles by linker m3c, which carries the second chain | two Ahx spacers between the m3c linker and the N-terminus
B4 gave a Kd [7] of 490 ± 20 nM.

In the case of {5‑TAMRA-Ahx}-REAGDGEE [T-pep1 (TAMRA-Ahx-REAGDGEE), listing 2 of 2 here], the Kd (TNKS2 ARC4 (488–649) [8]) is reported as 800 ± 100 nM.

Work on Ac-REAGDGEE [pep1] yielded a Kd (TNKS2 ARC4 (488–649) [9]) of 1200 ± 100 nM and an IC50 (TNKS2 ARC4 (488–649) [10]) of about 40000 nM.

B5: TNKS1 ARC2–3 (315–662) (domain or fragment, human, UniProt O95271 315-662, looked up)
chain: GKSALDLADPSAKAVLTGEYKKDELLEAARSGNEEKLMALLTPLNVNCHASDGRKSTPLHLAAGYNRVRIVQLLLQHGADVHAKDKGGLVPLHNACSYGHYEVTELLLKHGACVNAMDLWQFTPLHEAASKNRVEVCSLLLSHGADPTLVNCHGKSAVDMAPTPELRERLTYEFKGHSLLQAAREADLAKVKKTLALEIINFKQPQSHETALHCAVASLHPKRKQVTELLLRKGANVNEKNKDFMTPLHVAAERAHNDVMEVLHKHGAKMNALDTLGQTALHRAALAGHLQTCRLLLSYGSDPSIISLQGFTAAQMGNEAVQQILSESTPIRTSDVDYRLLEASKAGD
B5 was tested, and the “stoichiometry N” value (human Axin1_1–80) was 2.

In the case of Ac-RE[Aha]GDG[Aha]E (triazole 3-7 via m3; reading uncertain) [cp4n2m3], the IC50 (TNKS2 ARC4 (488–649) [10]) is reported as about 20000 nM.
